The values that follow come from a protein production outcome set (Wang et al. 2014).

This series can be described thus: label from the status in PepcDB records.
As for “MPTVAPLDIEGHVVSTHFLGDIPLFATAAGTIHRLDGGEKVTEAHDGLLTCIRDPYSATLLSGGEDGRVLRIGHDGSISEIANVPRKWVGVVAGGPQKAVAYGVGKSSFVRLSDCTVKEFKEERTVEAIAFAPKGLRIAVARYNGVTLHWVATAGDPVDLEWKGAHTGVTFSPDGKFLVTTMQENALHGWKMEATKGGMEARHMRMTGYPAKVKSISWSVKGKWLASSGAPAAIVWPFSGKDGPMGKAPEELGSRANIMATNVAFHPVEDVLAIGFIDGMILGVRLADGKEALLRRPGKGAITSMDWSATGNLLAFASEAGDCGIIDISALEHHHHHH”, the protein production result is reported as “failed”.
On to “MRPKANQNHKLKVLLVFLLATLILIFIVRSTLTSSQEHQTPQETRSTRCSGACNKLPRSLAQALIHYSTSVITPQQTLKEIAVSSRVLGKKSPCNFLVFGLGHDSLMWSSLNYGGRTVFLEEDEAWIKQIKRRFPMLESYHVTYDSKVNQADNLIEVGKGPECTAIGDPRYSMCQLALKGLPAEIYETGWDLIMVDAPTGYYDEAPGRMTAIYTAGMMARNRKQGGETDVFVHDVNREIEDKFSKAFLCEGYMKKQEGRLRHFIIPSYRDGSESESNRPFCP”, for which the protein production entry is “failed”.
Consider “MQVEETSIEEIQTKIKRLNSKAGQMKMDLHDLAEGLPTDYTQLMDVAAATYEIYRQLDELKQELKKLENAK”, for which the protein production entry is recorded as “failed”.
“MSDNNDRMYELEYPSPEVSGQTAGGPTLIVALQGYADAGHAVESSSSHLMDALDHRLIASFNNDELIDYRSRRPVVVIEHNEVTSMDELNLGLHVVRDNDNKPFLMLSGPEPDLRWGDFSNAVVDLVEKFGVENTICLYAAPMTVPHTRPTVVTAHGNSTDRLKDQVSLDTRMTVPGSASLMLEKLLKDKGKNVSGYTVHVPHYVSASPYPAATLKLLQSIADSADLNLPLLALERDAEKVHRQLMEQTEESSEIQRVVGALEQQYDSE”: the protein production entry is reported as “not failed”.
Consider “MTKLEQIQQWTAQHHASMTYLSNPKTIEYLTGFGSDPIERVLALVVFPDQDPFIFAPALEVEVIKETGWQFPVIGYLDHENPWAMIADQVKQRHVNPEHVAIEKGQLQVARMEALAAQFSAPSFDLDITSFIEHMR”, for which the protein production entry was “not failed”.
As to “MNEIILITGAYGMVGQNTALYFKKNKPDVTLLTPKKSELCLLDKDNVQAYLKEYKPTGIIHCAGRVGGIVANMNDLSTYMVENLLMGLYLFSSALDSGVKKAINLASSCAYPKFAPNPLKESDLLNGSLEPTNEGYALAKLSVMKYCEYVSAEKGVFYKTLVPCNLYGEFDKFEEKIAHMIPGLIARMHTAKLKNEKEFAMWGDGTARREYLNAKDLARFISLAYENIASIPSVMNVGSGVDYSIEEYYEKVAQVLDYKGVFVKDLSKPVGMQQKLMDISKQRALKWELEIPLEQGIKEAYEYYLKLLEV”, the protein production entry is given as “failed”.
To “PRTVKELTVSAGDNLIITLPDNEVELKAFVAPAPPVETTYNYEWNLISHPTDYQGEIKQGHKQTLNLSQLSVGLYVFKVTVSSENAFGEGFVNVTVKPAR” belongs “not failed”; to “MGLSRVRAVFFDLDNTLIDTAGASRRGMLEVIKLLQSKYHYKEEAEIICDKVQVKLSKECFHPYSTCITDVRTSHWEEAIQETKGGADNRKLAEECYFLWKSTRLQHMILADDVKAMLTELRKEVRLLLLTNGDRQTQREKIEACACQSYFDAIVIGGEQKEEKPAPSIFYHCCDLLGVQPGDCVMVGDTLETDIQGGLNAGLKATVWINKSGRVPLTSSPMPHYMVSSVLELPALLQSIDCKVSMSV”, “not failed”.
On to “MKANNHFKDFAWKKCLLGASVVALLVGCSPHIIETNEVALKLNYHPASEKVQALDEKILLLRPAFQYSDNIAKEYENKFKNQTALKVEQILQNQGYKVISVDSSDKDDLSFSQKKEGYLAVAMNGEIVLRPDPKRTIQKKSEPGLLFSTGLDKMEGVLIPAGFVKVTILEPMSGESLDSFTMDLSELDIQEKFLKTTHSSHSGGLVSTMVKGTDNSNDAIKSALNKIFANIMQEIDKKLTQKNLESYQKDAKELKGKRNR”, for which the protein production result was “failed”.
With “MSQILIGVGWVLFTVLLYQLSKKIYKLFPTPFTIPMLVATGLMAFLFIVLDIPYQHYMESGGGWIAKLLGPGVVAFAIPLYKQRHVLQKYVVPIAGGVLVGTTVAIASDFAIASLMGTDKSLILSSLPKSVTMPVAMSVSEQVGGVPSLTAAFVVIAGITGTITGPLLLKWSRVTNSVGKGIGFGCASHIMGVMRAMKNNEHEGVIGSVTMTLTAILTCLLGPLFAMMFM”, the protein production entry is reported as “failed”.
Turning to “MNNFTYEKLHNNLQYLKLNTIEELLDNCLEIAARDSKTTMEVLDYLFEQEKKHREAAAIERRMKSAGFPVKKMLEEFDFEFQSSINKKVIEDLATLRFVHNAENIVLLGPPGVGKSHLAIALGIEAVKAGISVHFTNTGNLIERLKIANREGILEKKIRDLMKFKVLIIDEIGYLPFDDEGAHCLFQLISRRYEKSSTILTSNKSYGEWGEIFKDHVIAAALLDRILHHCTTINIKGESYRLKERKKQGIKTGLIRHNSTEILENLEHHHHHH”, the protein production entry was “not failed”.
“MDTELMKLDVHVTAWSRTPSSSGFLNSVMISRDRDFEEFIINDRDGSVTSLGSYQNPSRGPDPLIFLDFRNFEPNYVYQLLLSQFHDHVLSEHIADQIGYTFGTCNSPTSTTDLDQESEEEE”: the protein production result is given as “failed”.
To “MLKLTPLLLAIAYGFLMYQFSVWRTKRMLDAQSRPLDEPEILALARRMAAALDLPTVKVSVFEVDPVNGLAAPDGRIFLTRGFLKKYRAGEVTAEELASVIAHELGHVALGHSRRRMIDFTGQNAVLMMLGAVLNRFVPFAGIWIARLLTSALSARLSRRDEHEADAYASALLVKAGIGTEPQKSLFRKLHRWSGMNSSAVPAWLMSHPVTDERIRRIEEREARWIEGLEHHHHHH” belongs “failed”.
Consider “MPDIVNTEQAQAWNGPEGAHWARNQDRWNAVNEGFDEPLLDAAGITGEDRVLDLGCGSGQTTRRAALRAPRGHVLGLDLSGPMLAEARSRAEREGVANVSFAQGDAQVHPFGAGAFDAAVSRYGVMFFADPVAAFGNVGRALRPGGRLAFVCPADAALNGWVTAMASLREVLPVGDFGQPGLPGMFSLAAPDRIGDVLTAAGFAGIDVNQVQAHGTWGRDAEDAAEFLLGTGPGRHLMERADPTARARARGILTDHLRTHEAADGTVRLLSTSWLTTATRPAATA”, for which the protein production result is “failed”.
To “MAGGPPNTKAEMEMSLAEELNHGRQGENQEHLVIAEMMELGSRSRGASQKKQKLEQKAAGSASAKRVWNMTATRPKKMGSQLPKPRMLRESGHGDAHLQEYAGNFQGIRFHYDRNPGTDAVAQTSLEEFNVLEMEVMRRQLYAVNRRLRALEEQGATWRHRETLIIAVLVSASIANLWLWMNQ” belongs “failed”; to “EREEEPAVQGNPDESLTVEGALEYVELAPQLNLPQQEEDADFHTVAGLIMEELQTIPDVGDFADFHGWRFEVVEKEGQRIERVKITKLP”, “not failed”.
The value for “MTAHWRYLNSLQPLSNLFIQAALRRKVTGTQLPDLGLRSWIAVDNDKLEAYRKVCGFADSSLLPPTYPHALAFTLQMQLMTSPEFPFPLLGLIHLGNQIRTLRPLGGVSQLYISVQATDLRPHPKGATFTLLTQAEDGMGLLWEEESTLLCTAVHLEDAPVPMPEAYLRPLIELDRWRASAQIGREYAKVSGDYNPIHLSAASAKLFGFPRAIAHGMWLKARALAALEDHLPASNVQISVQFQKPVRLPADVTLSASAAGSHGEFRVEGQEGIVHMIGSWQPATD” was “failed”.
Regarding “MSLPHLSSGEVASVLPLGKQLTQTPSAALFKEHRLEVMRMVLPAGKQVGSHSVAGPSTIQCLEGEVEIGVDGAQRRLHQGDLLYLGAGAAHDVNAITNTSLLVTVVLVDRGGS”, the protein production entry was “not failed”.
As to “MKKIKALALFSGGLDSLLSMKLLIDQGIEVTALHFNIGFGGNKDKREYFENATAQIGAKLLVCDIREQFFNDVLFKPKYGYGKYFNPCIDCHANMFRNAFYKMLELNADFVLSGEVLGQRPKSQRKEALNQVRKLVREVGEEARFDPVLDRTQAGGKKPQFLDELLLRPMSAKLLEPTFMEKKGFVDREKLLDVSGRGRSRQLQMIKDYGLKYYEKPGGGCLLTDIQVSNKIKNLKEYREMVFEDSVIVKNGRYFVLPHNARLVVARNEEENHKLDIQHPLMDKIELLNCKGPLSLVDKNASKEDKELAGRIALGYAKTLKNQAYLIQIGDEKRELYPLDKENAREYLFA”, the protein production result is “failed”.
To “MTTIDPRSELVDGRRRAGARVDAVGAAALLSAAARVGVVCHVHPDADTIGAGLALALVLDGCGKRVEVSFAAPATLPESLRSLPGCHLLVRPEVMRRDVDLVVTVDIPSVDRLGALGDLTDSGRELLVIDHHASNDLFGTANFIDPSADSTTTMVAEILDAWGKPIDPRVAHCIYAGLATDTGSFRWASVRGYRLAARLVEIGVDNATVSRTLMDSHPFTWLPLLSRVLGSAQLVSEAVGGRGLVYVVVDNREWVAARSEEVESIVDIVRTTQQAEVAAVFKEVEPHRWSVSMRAKTVNLAAVASGFGGGGHRLAAGYTTTGSIDDAVASLRAALGLEHHHHHH” belongs “not failed”.
The value for “LDNRFNYINVPGLGGSGEHHWQTFWEQAYPEIHRVQQADWDHPICSVWVNKLQLITETCSDKPVVLIAHSLGCVTVLHAVAQRKLKGIAGAFLVAMPDAERADFPKECIGFIPVPRIVLPFPAVMIASENDPYITSPELKKWADVIQASFVSVGQRGHIGTAAQLTYWEEGQQLFRSFVEQL” was “failed”.
To “MVVLKKMIGLVVVLSVLLARDNPFEPEINSKNLQGGFNGIYDSYFKEIHVDLPTSARILKQITLTYQDIDGSIHSKVVGIDKGIDWHYPLKLSQHTLDPAAFEKRYQIQDFDFLMASNTMILRSPYKILRSFVLVNPYRIVLDTQKGPLDIYQNMDLNQKFFSHIKVGTHKDYYRITLILDGKYRYLLEEKNGAYELKLK” belongs “failed”; to “MSLTEEFVNKEDALKNYNAKEFRTPDGYTSDMILTTVKELNGKPTLHILLIKRSLTNAEGKPNMEGGKWAVPGGFVDENESAEQAAERELEEETSLTDIPLIPFGVFDKPGRDPRGWIISRAFYAIVPPEALEKRAAGDDAAEIGLFPMTEALELPLAFDHLDMLKKAFSAITEEFLLTEGHHHHHH”, “not failed”.
“GHMHTPFIVALDFPSKQEVERFLRPFAGTPLFVKVGMELYYQEGPAIVAFLKEQGHAVFLDLKLHDIPNTVKQAMKGLARVGADLVNVHAAGGRRMMEAAIEGLDAGTPSGRMRPRCIAVTQLTSTDERMLHEELWISRPLVETVAHYAALAKESGLDGVVCSANEAAFIKERCGASFLAVTPGIRFADDAAHDQVRVVTPRKARALGSDYIVIGRSLTRAADPLRTYARLQHEWNGGERESTTPT”: the protein production result is on record as “not failed”.
To “MDGLHVSILSLVIFIVLFAVFVYLGFYASRWRKGDLSKLPEWALAGRKLGPYLMWFLLTADLFTAYTFIAVPSLVLASGPIGFYAAFYSGVTAFIALLFMPRLWAVSRNKGYVTAADFVKDRFNSKTLAGLVAVTGVVAELPYIALQIVGMQAALSILLLGLGVSNISLVNDLSLLVSFIILAAFVFTSGLRGAALTAVYKDIIILATVITVAIYVPLAFGGFSAAFSNAATYSSQVNSALNGVNKPIFYQYLQSTVSNNLAYISLAIGSAFALYLYPHAVNGSVSADSKKSLKISLALQPFYSLILAIIALFGILVYANTNVLNFIIHAKSGAVAVPALIGYTMPDWFVGVALLGIFIGGLVPAAIMAIGAANLLTRNIIKELKPNMSPNTESSLAKWISTAFKFIALALVFTVPATYAIQLQLLGGVIILQTLPPLFLGLYTHKLNSHSLIAGWVAGMFSGIYLTMLANHFGPIKTTSFITPIGVMYIGAISVIINVAIGLIGTAIAYGVGWRPRTGVKTEELV” belongs “failed”.
